These results are taken from patent US5316947A, “Synthetic isohirudins with improved stability” (Hoechst Aktiengesellschaft, priority 1991, dated 1994).

One series addresses thrombin (Homo sapiens, UniProt P00734). The experiment in a line: Comparative Ki value determination on optimized isohirudins (method of Stone and Hofsteenge, chromogenic substrate D-HHT-Gly-Arg-pNA). As to conditions: 25° C., pH 8.3, 0.1 M tris, 0.2 M NaCl, 0.1% Triton X-100; Ki = koff/kon; read-out: Ki(app.). The series is classed as biochemical. How it is done:
Ki values were determined by the method of Stone and Hofsteenge (Biochemistry 25, pages 4622-4628, 1986): 0.2 ml of a 1.25 mM solution of D-HHT-Gly-Arg-pNA was equilibrated at 25° C. with 1.7 ml of 0.1 M tris, 0.2 M NaCl and 0.1% (v/v) Triton X-100 pH 8.3 and 0.1 ml of the isohirudin to be tested in 145 mM NaCl. Binding was started by adding 0.05 ml of thrombin solution. The absorption at 405 nm was recorded for a period of 10-20 min.
The reaction follows the equation:
[P]=vs *t+(vo -v5)(1-e^-k*t)/k+d,
[P]=product concentration (nitroaniline) […]
vs =reaction rate in the equilibrium state
The rate constant k was determined by non-linear regression. Extrapolation of k at various inhibitor concentrations to [1]=0 according to […]
yields the rate constants kon and koff and thus Ki =koff /kon.

Series [1] in a line: 20-hour stability of [Ala1,Thr2] desulfatohirudin analogs at pH 7 and 60° C. (RP HPLC and anion exchange chromatography). It counts as physicochemical. As to conditions: stress conditions: 20 h, 0.5 mg/ml in 20 mM NaP, 300 mM NaCl. As to the method: The compound to be tested was dissolved in 0.5 mg/ml in 20 mM NaP, pH 7, 300 mM NaCl and incubated at 60° C. for 20 h. Samples were taken at times t=0 and t=20 h and analyzed by RP HPLC (Nucleosil®) and anionic exchange chromatography (Mono Q®). The content of newly formed byproducts was calculated.

Series [2] can be described thus: Time course of byproduct formation of desulfatohirudin analogs at pH 6.5 and pH 4, 60° C. (FIG. 4 and FIG. 3). The series is classed as physicochemical. As to conditions: 1 mg/ml in water, pH 4 (FIG. 3) and pH 6.5 (FIG. 4), up to 96 h. How it is done: The purified isohirudins, as lyophilisate, were dissolved at 1 mg/ml in water and adjusted to pH 6.5 with 1 M […]. After sterilization by filtration, […]. Samples were taken at times t=0, 5, 24, 48, 72 and 96 h and analyzed by RP HPLC (Nucleosil®) and ion exchange chromatography (Mono®) for the content of byproducts therein. The purity at time t=x is shown relative to the purity at t=0, with in each case the less favorable value from the two analysis systems being used as bases (FIG. 4).
The purified isohirudins, as lyophilisate, were dissolved at 1 mg/ml in water and adjusted to pH 4 with 1 M acetic acid. Incubation and analyses were carried out as in Example 10 (FIG. 3).

Substitutions are numbered along the chain they refer to.

Take “[Ala^1,Thr^2 ] desulfatohirudin [reference compound]”: the Ki on thrombin was 0.2 nM. Besides, in series [1], the “% newly formed byproducts” value amounted to 23.0%.

Regarding “[Ala^1,Thr^2,Glu^33,Glu^53 ] desulfatohirudin”, the Ki in the series with thrombin is 0.37 nM. Moreover, in series [2], the “Stability (byproduct formation over time)” value was “simple exchange of the aspartic acid does not have the optimal effect”.

“[Ile^1,Thr^2 ] desulfatohirudin [reference compound]”: the Ki on thrombin is 0.61 nM.

On to “[Leu^1,Thr^2 ] desulfatohirudin [reference compound]”, for which the Ki at thrombin came to 0.14 nM.

B1: [Ala^1 Thr^2,Glu^33,Ala^54 ] desulfatohirudin (protein)
chain: ATYTDCTESGQNLCLCEGSNVCGQGNKCILGSEGEKNQCVTGEGTPKPQSHNDADFEEIPEEYLQ
modifications: ends and bridges not checked
Take B1: the Ki with thrombin worked out at 0.35 nM.

B2: [Ala^1,Thr^2,Glu^33 ] desulfatohirudin (protein)
chain: B1 chain with A54G
modifications: ends and bridges not checked
As for B2, the Ki with thrombin is 0.16 nM. Further, the “% newly formed byproducts” value in series [1] amounted to 15.2%.

B3: [Ala^1,Thr^2,Gln^52,Glu^53,Ala^54 ] desulfatohirudin (protein)
chain: B1 chain with E33D, N52Q, D53E
modifications: ends and bridges not checked
In the case of B3, the Ki in the series with thrombin was 0.22 nM.

B4: [Ala^1,Thr^2,Glu^33,Gln^52,Glu^53,Glu^55 ]-desulfatohirudin (protein)
chain: B1 chain with N52Q, D53E, A54G, D55E
modifications: ends and bridges not checked
With B4, the Ki in the series with thrombin was determined as 0.3 nM. Also, the “% newly formed byproducts” value in series [1] is recorded as 3.2%. The “Stability (byproduct formation over time)” value in series [2] is recorded as “superior stability”.

B5: [Ala^1,Thr^2,Gln^52,Glu^53,Glu^55 ] desulfatohirudin (protein)
chain: B1 chain with E33D, N52Q, D53E, A54G, D55E
modifications: ends and bridges not checked
On to B5, for which the Ki in the series with thrombin is 0.19 nM. Moreover, the “% newly formed byproducts” value in series [1] is on record as 14.6%.

B6: [Ala^1,Thr^2,Ala^54 ] desulfatohirudin (protein)
chain: B1 chain with E33D
modifications: ends and bridges not checked
Turning to B6, the Ki with thrombin was found to be 0.27 nM.

B7: [Ala^1,Thr^2,Glu^53 ] desulfatohirudin (protein)
chain: B1 chain with E33D, D53E, A54G
modifications: ends and bridges not checked
B7: the Ki with thrombin came out at 0.38 nM.

B8: [Ala^1,Thr^2,Glu^33,Gln^52,Glu^53,Ala^54 ]-desulfatohirudin (protein)
chain: B1 chain with N52Q, D53E
modifications: ends and bridges not checked
For the molecule B8, in the series with thrombin, the Ki stood at 0.31 nM. The “Stability (byproduct formation over time)” value in series [2] is given as “superior stability”.
